# Measured values: publication PMC9988344 (mAbs, 2023)
# B1: anti-uPAR recombinant antibody 3159 (mouse/human chimeric IgG1) (antibody, V domains shown)
# VH: QVTLKESGPGILQSSLTLSLTCSLSGFSLSTSGMGVSWIRQPSGKGLEWLAHIYWDDDKRYNPSLKTRLTISKDASRDQVFLKIISVDTADTGTYYCGRRVRNYFSGTSYWYFDVWGTGTTVTVSS
# VL: DVLMTQTPLSLSVSLGDQASISCRSSQNILHRTGNTYLEWYLQKPGQSPKLLIYKVSNRFSGVPDRFSGSGSGTDFTLKISRLEAEDLGVYYCFQGSYVPFTFGSGTKLEMK
# B2: anti-uPAR recombinant antibody 11857 (mouse/human chimeric IgG1) (antibody, V domains shown)
# VH: EVQLRQSGPELVKPGASVKISCKASGYTFTDYYMNWVKQSHEKSLEWIGNINPNNGGTDYNQKFKGKATLTVDKSSSTAYMELRSLTSEDSAVYYCARSYGSRFPYWGLGTLVTVSA
# VL: DIQMTQTTSSLSASLGDRVTISCRASQDITNYLSWYQQKPDGTVKLLIFYTAVLQSGFPLRFSGSGSGADYSLTISNLEQEDFATYFCQQGHTLPWTFGGGTKLEIK
# B3: anti-uPAR recombinant antibody 8163 (mouse/human chimeric IgG1) (antibody, V domains shown)
# VH: EVQLVESGGGLVQPGESLTLSCDSNEFDFPSHDMSWVRKTPEKRLELVAAIDSDGGLTYYSNSRERRFIISRDNTKNTLYLQMRSLRSEDTALYYCARRRASYWYFDVWGTGTTVTVSS
# VL: DILLTQSPAILPVSPGERVSFSCRASQNIGTSIHWYQQRTNGSPRLLIKYASESISGIPSRFSGSGSGTDFTLSINGVESEDIGDYYCQQSNSWPTFGGGTKLEIK
# Key:
# [1] = molecular target: T1, human uPAR on the surface of MDA-MB-231 cells (Homo sapiens (endogenous, MDA-MB-231), UniProt Q03405); experiment: cell-based or functional assay
# T1 sequence (Q03405 23-305): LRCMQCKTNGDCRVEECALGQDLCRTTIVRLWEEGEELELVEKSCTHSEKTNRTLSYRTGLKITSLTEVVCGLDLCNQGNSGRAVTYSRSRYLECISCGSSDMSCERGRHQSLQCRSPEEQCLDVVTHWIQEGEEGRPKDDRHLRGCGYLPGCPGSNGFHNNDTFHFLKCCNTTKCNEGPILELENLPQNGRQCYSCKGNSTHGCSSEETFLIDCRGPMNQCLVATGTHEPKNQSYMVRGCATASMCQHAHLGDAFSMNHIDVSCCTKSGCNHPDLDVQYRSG
# [2] = molecular target: T1, human uPAR on the surface of MDA-MB-231 …; experiment: flow cytometry on cells
# [3] = molecular target: recombinant human soluble uPAR (suPAR) (human, UniProt Q03405, biotin (in the BLI experiments)); experiment: ELISA
# Sequence of recombinant human soluble uPAR (suPAR) (Q03405 23-305): as above
# [4] = molecular target: cynomolgus monkey uPAR (Macaca fascicularis, UniProt Q9GK78); experiment: ELISA
# Sequence of cynomolgus monkey uPAR (Q9GK78 23-305): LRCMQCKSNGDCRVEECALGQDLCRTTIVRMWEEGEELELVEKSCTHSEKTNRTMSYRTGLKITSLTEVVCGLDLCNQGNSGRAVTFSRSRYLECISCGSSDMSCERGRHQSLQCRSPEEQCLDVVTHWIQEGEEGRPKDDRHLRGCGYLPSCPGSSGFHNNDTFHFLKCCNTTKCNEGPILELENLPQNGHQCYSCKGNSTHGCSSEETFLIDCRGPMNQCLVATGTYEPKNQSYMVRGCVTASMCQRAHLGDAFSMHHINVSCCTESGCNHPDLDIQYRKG
Binder,"ADCC against MDA-MB-231 cells with NK-92 MI CD16a effector cells, EC50 [1]","ADCC against MDA-MB-231 cells with NK-92 MI CD16a effector cells, Max% [1]","ADCC against MDA-MB-231 cells with human PBMCs, EC50 [1]","ADCC against MDA-MB-231 cells with human PBMCs, Max% [1]",EC50 [2],EC50 [3],EC50 [4]
B1,0.89 nM,28.2%,0.11 nM,47.4%,0.92 nM,0.53 nM,0.27 nM
B2,5.59 nM,27.2%,0.35 nM,52%,2.07 nM,0.52 nM,0.18 nM
B3,1.14 nM,18.8%,0.09 nM,57.5%,0.69 nM,0.41 nM,0.15 nM
